16 molecules from US20220177587A1, “METHODS AND USES OF VARIANT CD80 FUSION PROTEINS AND RELATED CONSTRUCTS” (Alpine Immune Sciences, Inc., priority 2018, published 2022) can be followed below.

Sequences and labels used below:
B1: R29D, I30V, Y31L, Q33H, K36G, M38I, T41A, M43R, M47T, E81V, L85R, K89N, A91T, F92P, K93V, R94L, I118V, T120S, I127T, T130A, H188D (protein)
chain: VIHVTKEVKEVATLSCGHNVSVEELAQTDVLWHKEGKIVLAMRSGDTNIWPEYKNRTIFDITNNLSIVILALRPSDEGTYVCVVRKYENDTPVLEHLAEVTLSVKADFPTPSISDFEVPSSNIRRITCSASGGFPEPHLSWLENGEELNAINTTVSQDPETELYAVSSKLDFNMTTNHSFMCLIKYGDLRVNQTFNWNTTKQEHFPDN
B2: H18L, R29D, Y31L, Q33H, K36G, M38I, T41A, M43R, M47T, L70Q, E81V, L85R, K89N, A91T, F92P, K93V, R94L, I118V, T120S, T130A, K169E, H188D (protein)
chain: VIHVTKEVKEVATLSCGLNVSVEELAQTDILWHKEGKIVLAMRSGDTNIWPEYKNRTIFDITNNLSIVIQALRPSDEGTYVCVVRKYENDTPVLEHLAEVTLSVKADFPTPSISDFEVPSSNIRRIICSASGGFPEPHLSWLENGEELNAINTTVSQDPETELYAVSSELDFNMTTNHSFMCLIKYGDLRVNQTFNWNTTKQEHFPDN
B3: R29D, Y31L, Q33H, K36G, M38I, T41A, M43R, M47T, L70Q, E81V, L85R, K89N, A91T, F92P, K93V, R94L, I118V, T120S, T130A, N149D, K169E, H188D (protein)
chain: VIHVTKEVKEVATLSCGHNVSVEELAQTDILWHKEGKIVLAMRSGDTNIWPEYKNRTIFDITNNLSIVIQALRPSDEGTYVCVVRKYENDTPVLEHLAEVTLSVKADFPTPSISDFEVPSSNIRRIICSASGGFPEPHLSWLENGEELDAINTTVSQDPETELYAVSSELDFNMTTNHSFMCLIKYGDLRVNQTFNWNTTKQEHFPDN
B4: R29D, Y31L, Q33H, K36G, M38I, T41A, M43R, M47T, E81V, L85R, K89N, A91T, F92P, K93V, R94L, F108L, I118V, T120S, T130A, K169E, H188D (protein)
chain: VIHVTKEVKEVATLSCGHNVSVEELAQTDILWHKEGKIVLAMRSGDTNIWPEYKNRTIFDITNNLSIVILALRPSDEGTYVCVVRKYENDTPVLEHLAEVTLSVKADLPTPSISDFEVPSSNIRRIICSASGGFPEPHLSWLENGEELNAINTTVSQDPETELYAVSSELDFNMTTNHSFMCLIKYGDLRVNQTFNWNTTKQEHFPDN
B5: R29D, Y31L, Q33H, K36G, M38I, T41A, M43R, M47T, L70Q, E81V, K89N, A91T, F92P, K93V, R94L, I118V, T120S, I127T, T130A (protein)
chain: VIHVTKEVKEVATLSCGHNVSVEELAQTDILWHKEGKIVLAMRSGDTNIWPEYKNRTIFDITNNLSIVIQALRPSDEGTYVCVVLKYENDTPVLEHLAEVTLSVKADFPTPSISDFEVPSSNIRRITCSASGGFPEPHLSWLENGEELNAINTTVSQDPETELYAVSSKLDFNMTTNHSFMCLIKYGHLRVNQTFNWNTTKQEHFPDN
B6: R29D, Y31L, Q33H, K36G, M38I, T41A, M43R, M47T, L70Q, E81V, L85R, K89N, A91T, F92P, K93V, R94L, I118V, T120S, I127T, T130A, K169E (protein)
chain: VIHVTKEVKEVATLSCGHNVSVEELAQTDILWHKEGKIVLAMRSGDTNIWPEYKNRTIFDITNNLSIVIQALRPSDEGTYVCVVRKYENDTPVLEHLAEVTLSVKADFPTPSISDFEVPSSNIRRITCSASGGFPEPHLSWLENGEELNAINTTVSQDPETELYAVSSELDFNMTTNHSFMCLIKYGHLRVNQTFNWNTTKQEHFPDN
B7: R29D, Y31L, Q33H, K36G, M38I, T41A, M43R, M47T, L85R, K89N, A91T, F92P, K93V, R94L, I118V, T120S, I127T, T130A, K169E, H188D (protein)
chain: VIHVTKEVKEVATLSCGHNVSVEELAQTDILWHKEGKIVLAMRSGDTNIWPEYKNRTIFDITNNLSIVILALRPSDEGTYECVVRKYENDTPVLEHLAEVTLSVKADFPTPSISDFEVPSSNIRRITCSASGGFPEPHLSWLENGEELNAINTTVSQDPETELYAVSSELDFNMTTNHSFMCLIKYGDLRVNQTFNWNTTKQEHFPDN
B8: R29D, Y31L, Q33H, K36G, M38I, T41A, M43R, M47T, L70Q, E81V, L85R, K89N, A91T, F92P, K93V, R94L, T130A, H188D (protein)
chain: VIHVTKEVKEVATLSCGHNVSVEELAQTDILWHKEGKIVLAMRSGDTNIWPEYKNRTIFDITNNLSIVIQALRPSDEGTYVCVVRKYENDTPVLEHLAEVTLSVKADFPTPSISDFEIPTSNIRRIICSASGGFPEPHLSWLENGEELNAINTTVSQDPETELYAVSSKLDFNMTTNHSFMCLIKYGDLRVNQTFNWNTTKQEHFPDN
B9: R29D, Y31L, Q33H, K36G, M38I, T41A, M43R, M47T, E81V, L85R, K89N, A91T, F92P, K93V, R94L, I118V, T120S, I127T, C128Y, T130A, H188D (protein)
chain: VIHVTKEVKEVATLSCGHNVSVEELAQTDILWHKEGKIVLAMRSGDTNIWPEYKNRTIFDITNNLSIVILALRPSDEGTYVCVVRKYENDTPVLEHLAEVTLSVKADFPTPSISDFEVPSSNIRRITYSASGGFPEPHLSWLENGEELNAINTTVSQDPETELYAVSSKLDFNMTTNHSFMCLIKYGDLRVNQTFNWNTTKQEHFPDN
B10: T13R/C16R/L70Q/A71D: variant CD80 IgV-Fc, IgV SEQ ID NO:155 (protein)
chain: VIHVTKEVKEVARLSRGHNVSVEELAQTRIYWQKEKKMVLTMMSGDMNIWPEYKNRTIFDITNNLSIVIQDLRPSDEGTYECVVLKYEKDAFKREHLAEVTLSVKAD
B11: E35D/M47I/L65P/D90N: variant CD80 IgV-Fc, IgV SEQ ID NO:167 (protein)
chain: VIHVTKEVKEVATLSCGHNVSVEELAQTRIYWQKDKKMVLTMMSGDINIWPEYKNRTIFDITNNPSIVILALRPSDEGTYECVVLKYEKNAFKREHLAEVTLSVKAD
B12: T57I: variant CD80 IgV-Fc, IgV SEQ ID NO:156 (protein)
chain: VIHVTKEVKEVATLSCGHNVSVEELAQTRIYWQKEKKMVLTMMSGDMNIWPEYKNRIIFDITNNLSIVILALRPSDEGTYECVVLKYEKDAFKREHLAEVTLSVKAD
B13: M43I/C82R: variant CD80 IgV-Fc, IgV SEQ ID NO:157 (protein)
chain: VIHVTKEVKEVATLSCGHNVSVEELAQTRIYWQKEKKMVLTMISGDMNIWPEYKNRTIFDITNNLSIVILALRPSDEGTYERVVLKYEKDAFKREHLAEVTLSVKAD
B14: V22I/L70M/A71D: variant CD80 IgV-Fc, IgV SEQ ID NO:160 (protein)
chain: VIHVTKEVKEVATLSCGHNVSIEELAQTRIYWQKEKKMVLTMMSGDMNIWPEYKNRTIFDITNNLSIVIMDLRPSDEGTYECVVLKYEKDAFKREHLAEVTLSVKAD
B15: I30V/T57I/L70P/A71D/A91T: variant CD80 IgV-Fc, IgV SEQ ID NO:159 (protein)
chain: VIHVTKEVKEVATLSCGHNVSVEELAQTRVYWQKEKKMVLTMMSGDMNIWPEYKNRIIFDITNNLSIVIPDLRPSDEGTYECVVLKYEKDTFKREHLAEVTLSVKAD
B16: V22L/M38V/M47I/A71D/L85M: variant CD80 IgV-Fc, IgV SEQ ID NO:158 (protein)
chain: VIHVTKEVKEVATLSCGHNVSLEELAQTRIYWQKEKKVVLTMMSGDTNIWPEYKNRTIFDITNNLSIVILDLRPSDEGTYECVVMKYEKDAFKREHLAEVTLSVKAD

Where “and” joins values, the source holds several entries; their conditions need not be identical. Identical values can stand only once.

The test system of the first test is human pan T cells. Put plainly: Anti-CD3 coimmobilization assay, IFN-gamma. The class given is cell-based. The note with it: Table E34; culture supernatant, 3 days. A digest of the protocol:
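Plates coated overnight with 1 nM or 4 nM OKT3 anti-CD3 plus 1–80 nM rCD80.Fc variants, then washed. Purified human pan T cells or BC3 T cell clone (100,000/well) cultured 3 days in Ex-Vivo 15; supernatant IFN-gamma measured by ELISA.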
As to B1, the “Anti-CD3 IFN-gamma Coimmobilization Assay” value is 127 pg/mL and 237 pg/mL. On the same count and under the same terms, next, B2: 157 pg/mL; B3: 118 pg/mL. Turning to B4, the “Anti-CD3 IFN-gamma Coimmobilization Assay” value was 165 pg/mL. For B5, the “Anti-CD3 IFN-gamma Coimmobilization Assay” value came out at 226 pg/mL. B6: the “Anti-CD3 IFN-gamma Coimmobilization Assay” value is 203 pg/mL. Regarding B7, the “Anti-CD3 IFN-gamma Coimmobilization Assay” value amounted to 231 pg/mL.

In the case of B8, the “Anti-CD3 IFN-gamma Coimmobilization Assay” value is 213 pg/mL. In the case of B9, the “Anti-CD3 IFN-gamma Coimmobilization Assay” value came to 278 pg/mL.

For a further test, the target named is CD28 (Homo sapiens, UniProt P10747). Put plainly: Jurkat/IL2 reporter assay: blockade of CD28 costimulation (plate-bound anti-CD3/CD86-Fc). The class given is cell-based. Also on record: host or cells: Jurkat cells expressing an IL-2-luciferase reporter. The following applies: Table E5; protein diluted to 40 nM before mixing with cells; 5 hours. The procedure: The day before the assay, the assay plate was prepared. […] The plate was incubated overnight at 4° C. to allow the antibody and CD86-Fc protein to adhere to the surface of the plate. The next day, the wells of the assay plate were washed twice with 150 μL PBS prior to the assay.
Jurkat effector cells expressing IL-2-luciferase reporter were counted and resuspended in assay buffer to a concentration of 2×10^6 cells/mL. 60 μL of the Jurkat cell suspension were then added to the wells containing the CD80-Fc fusion molecules or controls. The cells and CD80 proteins were incubated at room temperature for 15 minutes and then 100 μL of the cell/CD80 protein mixture were transferred/well of the prepared anti-CD3/CD86-Fc assay plate.
The assay plate was briefly spun down (10 seconds at 1200 RPM) and incubated at 37° C. for 5 hours. After the 5 hour incubation, the plate was removed and equilibrated to room temperature for 15 minutes. 100 μL of Bio-Glo (Promega) were added/well of the assay plate, which was then placed on an orbital shaker for 10 minutes. Luminescence was measured with a 1 second per well integration time using a BioTek Cytation 3 luminometer.
(In general: Reporter assays use an easily measured gene product as a stand-in for the process of interest.)
In the case of B10, the “Average Relative Luminescence Units” value is on record as 3204 Relative Luminescence Units. Turning to B11, the “Average Relative Luminescence Units” value is 2377 Relative Luminescence Units.

On to B12, for which the “Average Relative Luminescence Units” value is 1463 Relative Luminescence Units. Consider B13, for which the “Average Relative Luminescence Units” value is reported as 1326 Relative Luminescence Units. As to B14, the “Average Relative Luminescence Units” value is given as 253 Relative Luminescence Units.

Consider B15, for which the “Average Relative Luminescence Units” value is recorded as 1731 Relative Luminescence Units. With B16, the “Average Relative Luminescence Units” value is given as 1770 Relative Luminescence Units.
